From the nanobody polyreactivity screen of Harvey et al. (2022)

Test: yeast display, Sf9 membrane polyspecificity reagent, FACS + sequencing; frameworks hold sequencing errors
Outline: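 Using colony PCR, genes from sorted yeast display clones were amplified, then sequenced on MiSeq at 2 × 250 and filtered by CDR length. The clones had been stained with 10% biotinylated, detergent-solubilized Sf9 membrane reagent for 1 hour at 4 °C and sorted by FACS into low and high (top ~1%) gates on anti-HA and streptavidin fluorescence. Polyreactivity labels come from the gate of origin.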

Row | Sequence | polyreactivity (PSR sort gate)
1 | QVHLVESGGGLVQAGGSLRLSCPASGLTFYRYAMGLYRPAPGKERELVAAISSGGNTYYADSVKGRFTISRDNAKNTVYLQMNSMKPEDTAVYYCAAESYALRGHPGYYYWGQGSQVTVSS | high polyreactivity
2 | QVHLVESGGGLVQAGGSLRLSFAASGRTFRGNDMGWYRQAPGKERELVATITRNGGSTRYADSVKGRFTISRDNAKNNVYLQMNSLKPEDSAVYYCNARSRYFGYDYWGQGTQVTVSS | high polyreactivity
3 | QVHLVESGGGLVQAGGSLRLSFAAYGSIFIQYVMGWYRQAPGKERELVAAISRRGGSTYYADSVKGRFTISRDNAKNTVYLHMNSLKPEDTAVYYCAAGSAYSIGYYWGQGTQVTVSS | high polyreactivity
4 | QVHLVESGGGLVQAGGSLRLSSAASGRNFFNYAMGWYRQAPGKERELVAAISTGGSTTYADSVKGRFTISRDNAKNTVYLQMNSLKPEDTAVYYCARRGRRYRQYSRYYYWGQGTQVTVSS | high polyreactivity
5 | QVHLVESGGGLVQAGGSLRLSSAASGSIFDSNAMGWYRQAPGKERELVAAINSTDITKYADSVKGRFTISRDNAKNTVYLQMNSLKPEDTAVYYCAKDQSLTYSSLWGYDYWGQGTQVTVSS | low polyreactivity
6 | QVHLVESGGGLVQAGGSLRLSSAASGSTFDYYAMGWYRQAPGKERELVAAISVGGGGTTYADSVKGRFTISRDNAKNTVYFQMNCLNPEDTAVYYCAARYRTRKRPGSKYYYWGQGTQVTVSS | high polyreactivity
7 | QVHLVESGGGLVQAGGSLRLTCAASGSIFTVYALGWYRQAPGKERELVAAITRNGGRTYYADSVKGRFTISRDNAKNTVYLQMNSLIPEDTAGYYCAAPGLYSRLDYWGQGTQVTVSS | high polyreactivity
8 | QVHLVESGGGLVQAGGSLRLTCAASGSTFASNVMGWYRQAPGKERELVAAISRRGTRTNYADSVKGRFTISLDNAKNTVYLQMKSLKPEDTAVYYCNTASGTNVVYEFGYWGQGTQVTVSS | high polyreactivity
9 | QVHLVESGGGLVQAGGSLSLSCAASGRNFRAYAMGWYRQAPGKETEFVAAISRSGGSTYYADSVKGRFTISRDYAKNTVYLQMHSLKPVDTAVYYCAARVRYPYRYYYWGQGTQVTVSS | high polyreactivity
10 | QVHLVESGGGLVQAGGSRRLSCAASGRIFSRYTMGCYRQAPGKERELVAVNTSGGSTNYADSVKGRFTISRDNAKNTVYLQMNSLKPEDTAVYYCNAVRFTYGGYLRRYDYWGQGTQVTVSS | high polyreactivity
11 | QVHLVESGGGLVQAGRSLRFSCAASGSIFGVNTMGWYRQAPGKERELDAGISSSGSSTYYADSVKGRFTISRDNAKNTVYLQMNSLKPEDTAVYDCAVRPRYYSTNMDSWGQGTQVTVSS | low polyreactivity
12 | QVHLVESGGGLVQAGRTLRLICAASGFIFWRNTMGWYRQAPGKERELVAVITRGGSTYYADSVKGRFTLSRDNAKNTGYLQMNSLKPEDTAVYYCAARNDYYKTFSGYDYWGQGTQVTVSS | low polyreactivity
13 | QVHLVESGGGLVQARGSLRLSCAASGITFRYYTMGLYRQAPVKERELVAVISWSGGSTYYADSVKGRFTISRDNAKNTVYFQMNSLKPEDTAVYYCAAVRRISRYDYWGQGTQVTVSS | high polyreactivity
14 | QVHLVESGGGLVQARGSLRLSCAASGSTIYSYARGWYRQAPGKERELVAAINRSAGSTYYADSVKGRFTISRDNAKNTVYLQMTSLKPEDTAVYYCAAYASRSYGDWGQGTQVTVSS | high polyreactivity
15 | QVHLVESGGGLVQARGTRRLSCAASGYTFPRYTMGWYRQAPGKERELVAAISGSSGSTYYADSVTGRFTISRDNATNTVYLQLNSLKPEDTAVYYCNKYYGFHKIKEYDYWGQGTQGTVSS | high polyreactivity
16 | QVHLVESGGGLVQAVVSLRLSCAASGTTFVSYAMGWYRHATGKERELVAGISWSGTRTYYADSVKGRFTISRDNAMNTVYLQMNSLKPEDSAVYYCNAVYIYNYRTLDYWGQGTQVTVSS | high polyreactivity
17 | QVHLVESGGGLVQPGGSLRLSCAASGSTFQTYAMVWYRQAPGKERELVAAITSGGSTNYADSVKGRFTISRDNAKNTVYLQMNSVYPEVTAVYFCAVRQIYQTSDHRLQYDYWGQGTQVTVSS | low polyreactivity
18 | QVHLVESGGGVVQAGGSLRLSCAASGRIFHRYEMGWYRQAPVKERELVAAINWRTGNTYYADSVKGRFTISRDNAKNTVYLQMNSLKAEDTAVYYCNARYRSDYWGIQYDYWGQGTQVTVSS | high polyreactivity
19 | QVHLVESGGPLVQAGGSLRLSCAASGRIFQINAMVWYRQAPGKERELVAGITGSGGSTDYADSVKGRFTISRDKSKNTVYLQMNSLKPEDTAVYYCAADTYTDGYDYWGQGTQVTVSS | low polyreactivity
20 | QVHLVESGGVLVQAGGSLRLSCAAYGSTFSWNAMGWYRQSPWKESELVAPITTRGGSTYYADSVKGRFTISRDNAQNTVYLEMNSLKPEDTAVYDCAASYGYRGGWGPGVDYWGQCTQVTVSS | low polyreactivity
21 | QVHLVESGRGLFQAGGSLRLSCAASGRIFPGYAMGWSRQAPGKESELVAGITWRTARTYYAYSVKGRFTISRDIAKNTVYLQMNSLKPEDTAVYYCAAKYARYGRDVIFDYWGQGTEVTVSS | high polyreactivity
22 | QVHLVESGRGLLQAGGSLRLSCAPSGRTFGVYSMGWYSQAPGKERELVAAISWSGDRTYYADSVKGRFTISRDYAKNTVYLQMNSLKPEDPALDYAEYHGAKYDYWGQGTQVTVSS | high polyreactivity

Row | Sequence | polyreactivity (PSR sort gate)
23 | QVHLVESRGGLIQAGGSLRLSCAASGSLYVYNALGWYRQAPGKERELVAGITFIGGSTYYADSVKGRFTISRDNAKNTVYLQMNSLKPEDTAVCYSNADVAPGIFYGYDSWGQGTQVTVSS | low polyreactivity
24 | QVHLVESRGGLVQAGGSLRLSCAASGRPFNPYAMGWYRQAPGKEREFVYADSVKGRFTISRDNAKNTVYLQMNSLKPEDTAVYYCAADVYPDTLHPYNYDYWGQGTQVTVSS | low polyreactivity
25 | QVHLVESVGGLVQAGGSLRLSCAASGIIFNDYAMGWYRQAPGKERELVATISWSGGSTYADSVKGRFTISRDNAKNTVYLQMNSLNPEDTAVYYCNADLGSSYDWGQGTQGTVSS | low polyreactivity
26 | QVHLVESVGGLVQAGGSLSLSCAASGLIFDGYAMGWYRQAPGKERDLVAAITWRGGRTYADSVKGRFTISRDNAKNTVYLQMNSLQPEVTAVYYCAVRRWGTSFVEDDYWGQGTQVTVSS | low polyreactivity
27 | QVHLVESWAGLVQAGGSLRLSGAASGTNVMGWYRQAPGKERELDAAISGSGGSTYYADSVKGRFTISRDNAKNTVYLQMNSLKPEDTAVYYCAADSIQYTARPYDYWGQGTQVTVSS | low polyreactivity
28 | QVHLVETGGGLVQAGGSLRLSCAASGSIFVSNAKGWYRQAPGKERELVAAISQSGGSTYYADSVKGRFTISRDYAKNTVYLQMNSLKPEDTAVYYCATPIRSGFRIYDYWGQGTQVTVSS | low polyreactivity
29 | QVHLVETGGGLVQEGGSLRLSCAASGSIFYYNAMGWYRQATGKETELVAAITSSGGSTYADSVKGRFTISRDNAKNTVYLQMNSLKPEDTAVYYCATVAHGLWSGSGYIYAYDYWGQGTQVTVSS | low polyreactivity
30 | QVHLVQSGGGLVQAGGSLRLSCAASGSIYVAYEMGWYRQAPGKERELVAAINFDGTSTYYADSVKGRFTISRDNAKNTVYLQMNSLKPEDTAVYYCNKRVSPTYKGQYDYWGQGTQVTVSS | low polyreactivity
31 | QVHLVVSGGGLVQEGGSLSLRWAASGSTFEYYGMGWYTQAPGKERELVAAITVSGGSTYYADSVKGRFTISRDNEKNTVYLQIHSLKPEDSAVCYCAARPILYWYFRFDYWGQGTQVTVSS | low polyreactivity
32 | QVHRVESGGGLVQAGGSLRLSCAASGIIFARYAMGWYRPAPGKERELVAAITRRAVSTYYADSVKGRFTITRDNAKNSVYLQLISLKPEDTAVYYCAADRASYFTYAYGYWGQGTQVTVSS | high polyreactivity
33 | QVHVVESGGGLVQAGGSLRLSCAASGFTFGNNAIGWYRQAPGKERELVAGISRTGGRTYYADSVKGRFTISRDNAMNTVFLPMNSLKPEDTAVFYCAKAFRGHYWGQGTQVNVSS | high polyreactivity
34 | QVHVVESGGGLVQAGGSLRLSCAASGSSFYHYAMGWYRQAPGKERELVAAISGSGGSTYYADSVKGRFTISRDNAKNTVYLQMNSLKPEDTAVYYCAADTSRYHYTRYFFDSDYWGQGTQVTVSS | low polyreactivity
35 | QVKHVESGGGLVQAGGSLRLTCAASGRTFDRYARGWCRQAPGKDRQLVASISWTGGSPYYADSVKGRFTISRDNAKNTVYLQMNSLKPEVTAVYYCAVRFDYWGQGTQVTVSS | low polyreactivity
36 | QVKLEESGGGLVQAGGSLRLTCAASGSTFTYYAMGWYRQAPGKERELVAAITFRGDSTYYADSVKGRFTFSRDNAKNTVYLQMNSLKPEDTAVYYWGQGTQVTVSS | low polyreactivity
37 | QVKLHESGGGLVQAGDSQRLSCAASGNIFRFTDMGWSRQAPRKERELVAAINAGSTTYYADSVKGRFTISRDNAKNTVYLQKNSLKPEDTAVYYWAVYYLGSGTFGYWGQGAQVTVSS | high polyreactivity
38 | QVKLLESGGGLVQAGGSLRLTCAASGSTFPPYAMGWYRQAPGTESELVAAISYRDTGTYYADSVKGRFTISRDNAKYTVYLQMNSLKPEDTAVYYCATLGYFSASRTDYDYWGQGTQVTVSS | low polyreactivity
39 | QVKLQESGGGLVQAGGSLRLSCAASGNISVTGFMGWYRQAPGKERELVASIGIGGTTYYADSVKGRFSISRDNANNTLYLQMNSLKPEDTAVYYCAARYLYYAYSYWGQGTQVTVSS | low polyreactivity
40 | QVKLVESGAGLVQAGGSLRLSCAASALSFYYYAMGWYRQAPGKERELVASITGGDSTNYADSVKGRFTISRDNAKNTVYLQMNSLKPEETAVYYCADEFYVSSYGYRTYDYYYWGQGTQVTVSS | low polyreactivity
41 | QVKLVESGAGVVQAGGSLRLSCAACGRIFLKYAMGWYRQAPGKERELVAAITSGGGRTSYADSVKGRFTISRDNAKNTVYLQMNSLKPEDTAVYYCNAPAYWRYILRGSAYDYWGQGTQVTVSS | high polyreactivity
42 | QVKLVESGGGFLQAGGRLRLSCAASGIIFYYYAMGRYRQAPGKERELVAAISSGGSTYYSDSVKGRFTISRDNAMNTVYLQMNSLKPEDTAVYYCAADPLYTIDIEYSTYGDYDYWGQGTQVTVSS | low polyreactivity
43 | QVKLVESGGGLVQAGGSLRISSAASGSTFYYYAMGWYRQAPGKESEFVASISSRGTSKYYADSVKGRFTISRDNAKNTVYLQMNSLKPEDTAVYYCAARGWCPTRAYDYWGQGTQVTVSS | high polyreactivity
